For 38 molecules, normalised SPOT signal, Boehringer light units (BLU); mean over the file's lines of this peptide results are on record in PMC314469, “Protein Interaction Networks by Proteome Peptide Scanning” (PLoS Biology, 2004).

First the molecules themselves.
T1: amphyphisin SH3 (AMPH_HUMAN), P49418
T1 chain: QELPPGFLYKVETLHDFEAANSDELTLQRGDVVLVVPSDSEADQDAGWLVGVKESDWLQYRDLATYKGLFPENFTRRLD

The first test has as its target endophilin SH3 (SH3G2_HUMAN), Q99962. The test can be described thus: SPOT array.
PRKYPNRPSKTPLH [Q06889 258-271] came in with a normalised SPOT signal, Boehringer light units (BLU); mean over the file's lines of this peptide of 51.5.
For PRQLLTRPHKAEDF [Q99973 2038-2051], the normalised SPOT signal, Boehringer light units (BLU); mean over the file's lines of this peptide is 198.
On the same count and under the same terms, then ASPRLRRPKSPKLP [Q96DR7 104-117], with 35; and PRKYPNRPSKTPVH [P11161 323-336], with 57.5; and PRPPPGKPPTRPGV [O94932 475-489], with 1540.
On the same count and under the same terms, as for PQPPPRRPWASRVL [O94850 45-58], the figure is 508; as for PRANPRRPPRAIVP [Q8WYW1 101-114], 94.1.
Still for that read-out and setting: as for PREPPRRPAFLPVG [Q13387 310-323], the figure is 1100; as for ASLFPKRPALEPVR [Q9Y2X7 686-699], 926.
For the molecule PQSSLRRPDPGRLP [O95613 3094-3107], the normalised SPOT signal, Boehringer light units (BLU); mean over the file's lines of this peptide came to 37.8.
For the molecule PRKLPSRPPPHYPG [O75923 185-199], the normalised SPOT signal, Boehringer light units (BLU); mean over the file's lines of this peptide was 2340.
Regarding PREFPFKPPSIYMI [Q96T84 67-81], the normalised SPOT signal, Boehringer light units (BLU); mean over the file's lines of this peptide was determined as 519.
Molecule PQPPPPKPPRPQPP [P35556 29-43] returned a normalised SPOT signal, Boehringer light units (BLU); mean over the file's lines of this peptide of 3390.
Same read-out and setting: then PRPTPRRPRPRLAR [Q9GZW5 261-274], with 1950; and PSAPPAKPPSTQRA [O60904 189-203], with 254.
Same read-out and setting: as for PQTELRRPGQLIDE [Q9H1Y1 836-849], the figure is 44.1; as for PRGVLPRPSRVLVL [Q9NYA1 7-20], 508.
Same read-out and setting: then PQQFPSRPPPPQPK [Q13443 782-796], with 5200; and PRPRPRRPRQLTRA [Q9HAM8 17-30], with 206.
Molecule PRTLPRRPYKVLLA [O75064 398-411] yielded a normalised SPOT signal, Boehringer light units (BLU); mean over the file's lines of this peptide of 865.
The same measure, in the same setting: as for PRSVFLRPQRNLES [Q9Y2L9 614-627], the figure is 211; as for PRLRPMRPPPPPPA [Q9NXX8 675-689], 4660.
PRKAPRRPGPGMSG [Q92611 83-96] had a normalised SPOT signal, Boehringer light units (BLU); mean over the file's lines of this peptide of 221.
In turn, PRQPPSRPPRRPPW [Q99785 93-107] registered a normalised SPOT signal, Boehringer light units (BLU); mean over the file's lines of this peptide of 8300.
On the same count and under the same terms, as for PRRGPPRPPGLPYP [AAH31882 46-60], the figure is 7980; as for PRRPPPRPPSRLSM [Q9BVH8 778-792], 32000.
Still for that read-out and setting: then PRVDPYRPVRLPMQ [Q93074 1800-1813], with 175; and PRRRPGRPRKLPRL [Q9H4Z2 347-360], with 96.
Still for that read-out and setting: then ASNQPKRPPAAPEN [P48634 118-131], with 51; and PREGPGRPPLDGRD [Q9H8B2 127-141], with 58.8.
In the case of ASHPPPRPPKHPSV [BAC05194 549-563], the normalised SPOT signal, Boehringer light units (BLU); mean over the file's lines of this peptide is 5360.
Still for that read-out and setting: as for PRPGPSRPPPVPAP [Q9Y2G0 18-32], the figure is 1900; as for PRPLPPRPPAAQPP [P10323 331-345], 3120.
On the same count and under the same terms, as for PRPSPARPKKSEES [O94836 564-577], the figure is 265.
Same read-out and setting: then PRPLPPRPPAAQPR [P58840 142-156], with 7560; and PRAWPRRPRRDYSI [O43385 549-562], with 221.
Molecule PRAVPARPPTRPRF [Q8TE87 150-164] showed a normalised SPOT signal, Boehringer light units (BLU); mean over the file's lines of this peptide of 17600.
On the same count and under the same terms, then PRAPLHRPQKPREG [Q9P1Y6 1426-1439], with 194.

A further test addresses T1, amphyphisin SH3 (AMPH_HUMAN), P49418. Nature of the test: SPOT array.
PRKYPNRPSKTPLH [Q06889 258-271]: the normalised SPOT signal, Boehringer light units (BLU); mean over the file's lines of this peptide came to 79.9.
Still for that read-out and setting: as for PRQLLTRPHKAEDF [Q99973 2038-2051], the figure is 104; as for ASPRLRRPKSPKLP [Q96DR7 104-117], 110.
PRKYPNRPSKTPVH [P11161 323-336]: the normalised SPOT signal, Boehringer light units (BLU); mean over the file's lines of this peptide was found to be 109.
Still for that read-out and setting: then PRPPPGKPPTRPGV [O94932 475-489], with 225; and PQPPPRRPWASRVL [O94850 45-58], with 79.9.
On the same count and under the same terms, as for PRANPRRPPRAIVP [Q8WYW1 101-114], the figure is 373.
Still for that read-out and setting: as for PREPPRRPAFLPVG [Q13387 310-323], the figure is 32.1; as for ASLFPKRPALEPVR [Q9Y2X7 686-699], 41.1; as for PQSSLRRPDPGRLP [O95613 3094-3107], 39.9.
As for PRKLPSRPPPHYPG [O75923 185-199], the normalised SPOT signal, Boehringer light units (BLU); mean over the file's lines of this peptide was 640.
On the same count and under the same terms, then PREFPFKPPSIYMI [Q96T84 67-81], with 32.3; and PQPPPPKPPRPQPP [P35556 29-43], with 513.
The same measure, in the same setting: then PRPTPRRPRPRLAR [Q9GZW5 261-274], with 928; and PSAPPAKPPSTQRA [O60904 189-203], with 53.9; and PQTELRRPGQLIDE [Q9H1Y1 836-849], with 27.5.
Same read-out and setting: then PRGVLPRPSRVLVL [Q9NYA1 7-20], with 1850; and PQQFPSRPPPPQPK [Q13443 782-796], with 321; and PRPRPRRPRQLTRA [Q9HAM8 17-30], with 72.2.
For PRTLPRRPYKVLLA [O75064 398-411], the normalised SPOT signal, Boehringer light units (BLU); mean over the file's lines of this peptide was found to be 109.
On the same count and under the same terms, as for PRSVFLRPQRNLES [Q9Y2L9 614-627], the figure is 3830; as for PRLRPMRPPPPPPA [Q9NXX8 675-689], 1860; as for PRKAPRRPGPGMSG [Q92611 83-96], 46.8.
Same read-out and setting: as for PRQPPSRPPRRPPW [Q99785 93-107], the figure is 6780.
On the same count and under the same terms, then PRRGPPRPPGLPYP [AAH31882 46-60], with 1100; and PRRPPPRPPSRLSM [Q9BVH8 778-792], with 27600; and PRVDPYRPVRLPMQ [Q93074 1800-1813], with 327.
As to PRRRPGRPRKLPRL [Q9H4Z2 347-360], the normalised SPOT signal, Boehringer light units (BLU); mean over the file's lines of this peptide stood at 32.5.
Same read-out and setting: as for ASNQPKRPPAAPEN [P48634 118-131], the figure is 38.1; as for PREGPGRPPLDGRD [Q9H8B2 127-141], 47.3.
The same measure, in the same setting: as for ASHPPPRPPKHPSV [BAC05194 549-563], the figure is 848.
The same measure, in the same setting: as for PRPGPSRPPPVPAP [Q9Y2G0 18-32], the figure is 137; as for PRPLPPRPPAAQPP [P10323 331-345], 1540; as for PRPSPARPKKSEES [O94836 564-577], 101.
Consider PRPLPPRPPAAQPR [P58840 142-156], for which the normalised SPOT signal, Boehringer light units (BLU); mean over the file's lines of this peptide was determined as 2770.
The molecule PRAWPRRPRRDYSI [O43385 549-562] yielded a normalised SPOT signal, Boehringer light units (BLU); mean over the file's lines of this peptide of 1550.
On the same count and under the same terms, as for PRAVPARPPTRPRF [Q8TE87 150-164], the figure is 6470; as for PRAPLHRPQKPREG [Q9P1Y6 1426-1439], 98.2.
